Patent US20250099534A1 (TECHNION RESEARCH AND DEVELOPMENT FOUNDATION, published 2025)
Starred links: 1 amine or outer side, 2 acyl side, 3 side chain; linkers in the order of their positions; H or OH if unused. Positions of bridges follow the written chain, without caps; N, C: chain ends. Primed or numbered codes have the meaning given here. No end group written: not given here. *: point of attachment. mClBz(3) = 3-(chloromethyl)benzoic acid, non-amino acid initiator forming a thioether with the C-terminal-region Cys, O=C(c1cccc(C[*:3])c1)[*:2]; mClBz(4) = 3-(chloromethyl)benzoic acid initiator, its benzyl thioether with a Cys side chain closes the ring, O=C(c1cccc(C[*:3])c1)[*:2]; mClBz = N-terminal group cyclised as a benzyl thioether to a Cys, O=C(c1cccc(C[*:3])c1)[*:2]; C10F9 = S-aryl group from decafluorobiphenyl, Fc1c(F)c(F)c(-c2c(F)c(F)c(*)c(F)c2F)c(F)c1F; mBz = 3-(methylene)benzoyl on the N-terminal amine, O=C(c1cccc(C[*:3])c1)[*:2]; C6F5 = pentafluorophenyl group on the Cys sulfur, Fc1c(F)c(F)c(*)c(F)c1F; Bn = c1ccc(C*)cc1; Acm = CC(=O)NC*

B1: cyclic peptide 1 (CP1) (peptide)
peptide: {mClBz(4)}-LLIWIGSSKNPYILCG-NH2
modifications: thioether N-15
SMILES: CC[C@H](C)[C@@H]1NC(=O)[C@H](Cc2c[nH]c3ccccc23)NC(=O)[C@H]([C@@H](C)CC)NC(=O)[C@H](CC(C)C)NC(=O)[C@H](CC(C)C)NC(=O)c2cccc(c2)CSC[C@@H](C(=O)NCC(N)=O)NC(=O)[C@H](CC(C)C)NC(=O)[C@H]([C@@H](C)CC)NC(=O)[C@H](Cc2ccc(O)cc2)NC(=O)[C@@H]2CCCN2C(=O)[C@H](CC(N)=O)NC(=O)[C@H](CCCCN)NC(=O)[C@H](CO)NC(=O)[C@H](CO)NC(=O)CNC1=O
notes: Found by RaPID selection, then made by Fmoc-SPPS; also called lead cyclic peptide 1
B2: 14 (peptide)
peptide: mBz-C(Acm)LIWIGSSKNPYILCG-NH2
modifications: thioether N-15
SMILES: CC[C@H](C)[C@@H]1NC(=O)[C@H](Cc2c[nH]c3ccccc23)NC(=O)[C@H]([C@@H](C)CC)NC(=O)[C@H](CC(C)C)NC(=O)[C@H](CSCNC(C)=O)NC(=O)c2cccc(c2)CSC[C@@H](C(=O)NCC(N)=O)NC(=O)[C@H](CC(C)C)NC(=O)[C@H]([C@@H](C)CC)NC(=O)[C@H](Cc2ccc(O)cc2)NC(=O)[C@@H]2CCCN2C(=O)[C@H](CC(N)=O)NC(=O)[C@H](CCCCN)NC(=O)[C@H](CO)NC(=O)[C@H](CO)NC(=O)CNC1=O
notes: Acm-protected precursor of cyclic peptide 2; also called CP1-L1C-Acm; cyclic peptide 14

Each binder was assayed against T1, biotinylated-Lys63 linked Di-Ub (UniProt P0CG47 1-76, isopeptide bond between the C-terminal Gly of the distal Ub and Lys63 of the proximal Ub; biotin tag at the N-terminus of the distal Ub) (assay: SPR (BIACORE T100), biotinylated Lys63 Di-Ub on a CAPture chip).
T1 construct: mature; Immobilised on streptavidin plates or on the SPR CAPture chip; also called K63-linked Di-Ub; biotin-Lys63 linked Di-Ub
Protocol: The binding of cyclic peptide 1 (CP1) against the target, Lys63 linked Di-Ub was determined using BIACORE T100 instrument (GE Healthcare) equipped with a biotin CAPture kit series S chip. 50 mM HEPES (pH=7.30, 150 mM NaCl, 0.05% Tween 20, 2.0 mM DTT, 0.2% DMSO) was used as buffer. Biotinylated-Lys63 linked Di-Ub was loaded on the SPR chip. By using various concentrations of peptide.

Question: B1 was tested. Which Kd did it give?
Answer: 16 nM

Each binder was assayed against T2, Lys48-linked Tetra-Ub (UniProt P0CG47 1-76, isopeptide bonds between the C-terminal Gly and Lys48 of successive Ub units) (assay: fluorescence-based assay of relative binding on Lys48-linked Tetra-Ub, normalised to Ub4_ix; the labelled competitor is not named [panel headed '(iv) Binding of 1 and 2 against Lys48 Tetra-Ub as a target' (v) of the legend]).
T2 construct: mature

Question: Does mClBz-CLIWIGSSKNPYILCG (bridge N-15; not fully specified (C-terminus, bridges), also called CP2) [cyclic peptide 2 (CP1-L1C)] bind?
Answer: binds

These binders were tested against T3, Lys48-linked Di-Ub (UniProt P0CG47 1-76, isopeptide bond between the C-terminal Gly of one Ub and Lys48 of the other) (assay: fluorescence-based assay of relative binding on Lys48-linked Di-Ub, normalised to mJ08-L8W; the labelled competitor is not named [iv]).
T3 construct: mature

Question: Does mClBz-CLIWIGSSKNPYILCG (bridge N-15; not fully specified (C-terminus, bridges), also called CP2) [cyclic peptide 2 (CP1-L1C)] bind?
Answer: binds

Each binder was assayed against T1, biotinylated-Lys63 linked Di-Ub (assay: fluorescence-based competitive assay: unlabeled peptide, 5.0 molar equiv., pre-bound to biotinylated Lys63-linked Di-Ub on a streptavidin plate, then competed with CP1-FITC (1 equiv.); signal change relative to 1 (CP1), Y=[1-(a/b)]x100).
Protocol: Streptavidin-coated microplate (96 well plate) was washed with HEPES buffer (50 Mm HEPES, 150 Mm NaCl, pH 7.30) and then in each well incubated 1 μg of biotinylated-Lys63-linked Di-Ub in 100 μl of the same buffer at RT. for 30 min. Additional wells were kept without biotinylated-Lys63-Di-Ub for blank subtraction. After the washing step, peptide standard (CP1) and unlabeled peptides were incubated (5.0 molar equivalent relative to biotin-Lys63-linked Di-Ub) at RT for 30 minutes for saturation binding to the target. Then 1 molar equivalent of FITC labeled peptide-standard (CP1-FITC) relative to biotinylated-Lys63-linked Di-Ub was incubated to compete with unlabeled peptides at RT for 30 min. After releasing bounded peptides on treatment with 6 M Guanidinium chloride (Gnd·HCl), the fluorescence values were measured (λex=480 nm and λem=525 nm). These values were normalized and then calculated the relative change in binding with the following formula:
Y=[1−(a/b)]×100 [0289] Where Y=Signal change relative to the standard (CP1) (in terms of %). [0290] a=Measured signal value of each peptide candidate (in Relative Fluorescence Units). [0291] b=Measured signal value of standard peptide (CP1). The dissociation constant (KD) of fluorescein-labeled peptide (CP1-FITC) was calculated in accordance with the literature procedure (Vamisetti G B et al., 2021).

Question: Does mClBz-CLIWIGSSKNPYILCG (bridge N-15; not fully specified (C-terminus, bridges), also called CP2) [cyclic peptide 2 (CP1-L1C)] bind?
Answer: binds

Question: Does B2 bind?
Answer: binds

Question: Does {mClBz(3)}-C(CH3)LIWIGSSKNPYILCG (bridge N-15; not fully specified (C-terminus, bridges)) [cyclic peptide 15, CP1-L1C-CH3] bind?
Answer: binds

Question: Does {mClBz(3)}-C(Bn)LIWIGSSKNPYILCG (bridge N-15; not fully specified (C-terminus, bridges)) [cyclic peptide 16, CP1-L1C-CH2C6H5] bind?
Answer: binds

Question: Does {mClBz(3)}-C(CH2CONH2)LIWIGSSKNPYILCG (bridge N-15; not fully specified (C-terminus, bridges)) [cyclic peptide 17, CP1-L1C-CH2CONH2] bind?
Answer: binds

Question: Does {mClBz(3)}-C(CH2C10H7)LIWIGSSKNPYILCG (bridge N-15; not fully specified (C-terminus, bridges)) [cyclic peptide 18, CP1-L1C-CH2C10H7] bind?
Answer: binds

Question: Does {mClBz(3)}-C(7‑methoxycoumarin‑4‑ylmethyl)LIWIGSSKNPYILCG (bridge N-15; not fully specified (C-terminus, bridges)) [cyclic peptide 19, CP1-L1C-CH2C10H7O3] bind?
Answer: binds

Question: Does mClBz-C(C6F5)LIWIGSSKNPYILCG (thioether N-15) [cyclic peptide 20, CP1-L1C-C6F5] bind?
Answer: binds

Question: Does mClBz-C(C10F9)LIWIGSSKNPYILCG (thioether N-15) [cyclic peptide 21, CP1-L1C-C10F9] bind?
Answer: binds
